Paper PMC7096399

Columns and labels:
[1] = molecular target: His6-tagged FGF2 (Fibroblast Growth Factor 2, 18 kDa isoform), wild type, P09038-2; experiment: AlphaScreen; conditions: His-FGF2 and GST-α1-subCD3 variants cross-titrated from 500 to 8 nM in PBS, 0.1% (w per v) BSA, 0.05% (w per v) Tween 20; selected concentration pairs …; parent: est. 100; read off a plot
[2] = molecular target: α1-subCD3 as used in cross-linking and NMR experiments (migrates at 27 kDa) (human) (UniProt P05023); experiment: cross-linking; BMOE (1:1 to protein) or DSG (4:1) at 25 °C in HK buffer (25 mM Hepes pH 7.4, 150 mM KCl); single proteins 10 µM, mixtures 20 µM total at ratios 1:1, 1:2, 2:1; SDS-PAGE with Coomassie staining or western blot

Substance | percent of parent [1] | stoichiometry N [2]
GST-α1-subCD3, small sub-domain of loop 3 of the cytoplasmic domain of α1 (from UniProt P05023) K524E; E525R | 100% | –
GST-α1-subCD3, small sub-domain of loop 3 of the cytoplasmic domain of α1 (from UniProt P05023) K524M; E525Q | 100% | –
GST-α1-subCD3, small sub-domain of loop 3 of the cytoplasmic domain of α1, P05023 D560N | 60% | –
GST-α1-subCD3, small sub-domain of loop 3 of the cytoplasmic domain of α1, P05023 K524M; E525Q; E498Q | 110% | –
His6-tagged FGF2 (Fibroblast Growth Factor 2, 18 kDa isoform), wild type (from UniProt P09038-2 1-155) (natural protein) | – | 1
